Experiment in all cases: cell-based or functional assay
Test [1] addresses IL-21R on B9 cells.
For test [2], the target named is IL2Rαβγ on CTLL2 cells.
For test [3], the target named is IL2Rβ and common γ chain on 32Dβ cells.
Test [4] has the same target. This is another data set of the same source.
Test [5] has the same target. The source holds these as a separate data set.
The target in test [6] is TGFβ1 (R&D systems) (UniProt P01137).
For test [7] the target is unchanged. This is another data set of the same source.

Like-named read-outs stand apart in the source and are kept apart here.

Human recombinant TGFβRII/Fc, sequence (P37173 24-159): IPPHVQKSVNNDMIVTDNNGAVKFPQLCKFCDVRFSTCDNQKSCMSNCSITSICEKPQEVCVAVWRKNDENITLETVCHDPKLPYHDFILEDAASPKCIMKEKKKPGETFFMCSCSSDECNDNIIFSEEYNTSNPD
TGFβ1 (R&D systems), sequence (P01137 279-390 limits assumed): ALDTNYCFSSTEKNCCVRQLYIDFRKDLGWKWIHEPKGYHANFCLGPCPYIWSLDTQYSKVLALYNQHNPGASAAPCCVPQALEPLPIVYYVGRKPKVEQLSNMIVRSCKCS

On to “recombinant IL-21 (from UniProt Q9HBE4 32-162) (ligand)”, for which the EC50 of B9 cell proliferation (WST1) in test [1] was found to be 72.5 nM.

Turning to “recombinant IL-2 (from UniProt P60568 21-153) (ligand)”, the EC50 of CTLL-2 cell proliferation (WST1) in test [2] was 548 pM. Also, the EC50 of 32Dβ cell proliferation (WST1) in test [3] is 140 pM.

Consider “recombinant IL-15 (from UniProt P40933 49-162) (ligand)”, for which the results for the EC50 of 32Dβ cell proliferation (WST1) in test [4], in test [5] and in test [3] were 16.6 pM, 10.6 pM and 1.6 pM, respectively. Further, the EC50 of CTLL2 cell proliferation (PrestoBlue) in test [2] turned out to be 4.95 pM. The substance also yielded an EC50 of CTLL2 cell proliferation (WST1) in test [2] of 6.22 pM.

In the case of “Human recombinant TGFβRII/Fc (from UniProt P37173 24-159) (Fc fusion)”, the IC50, TGFβ1 activity in HEK-Blue TGFβ reporter cells in test [6] amounted to 559 pM; in test [7] it was 461 pM.
